# From the Immune Epitope Database (IEDB)
# Key:
# HLA-A*33:01 = test: IEDB peptide-MHC binding, purified MHC/competitive/radioactivity; filed as Kd, often an IC50 or EC50 that approximates it; ≥ and ≤ were set here for values at or beyond the usual limits of such assays; settings: source organism: Lassa virus Josiah
# HLA-A*68:01 = test: as above; settings: source organism: Lassa virus Josiah
# HLA-A*11:01 = test: IEDB peptide-MHC binding, purified MHC/direct/fluorescence; filed as Kd, often an IC50 or EC50 that approximates it; ≥ and ≤ were set here for values at or beyond the usual limits of such assays
# HLA-A*03:01 [1] = test: as above
# HLA-A*31:01 [2] = test: IEDB peptide-MHC binding, purified MHC/competitive/fluorescence; filed as Kd, often an IC50 or EC50 that approximates it; ≥ and ≤ were set here for values at or beyond the usual limits of such assays
# HLA-A*02:03 = test: IEDB peptide-MHC binding, purified MHC/competitive/radioactivity; filed as Kd, often an IC50 or EC50 that approximates it; ≥ and ≤ were set here for values at or beyond the usual limits of such assays
# HLA-A*02:01 [3] = test: as above
# HLA-A*02:17 = test: as above
# HLA-A*02:06 = test: as above
# HLA-A*03:01 [4] = test: IEDB peptide-MHC binding, purified MHC/competitive/fluorescence; filed as Kd, often an IC50 or EC50 that approximates it; ≥ and ≤ were set here for values at or beyond the usual limits of such assays
# HLA-A*01:01 [5] = test: IEDB peptide-MHC binding, purified MHC/direct/fluorescence; filed as Kd, often an IC50 or EC50 that approximates it; ≥ and ≤ were set here for values at or beyond the usual limits of such assays
# HLA-A*80:01 = test: as above
# HLA-A*68:02 = test: IEDB peptide-MHC binding, purified MHC/competitive/radioactivity; filed as Kd, often an IC50 or EC50 that approximates it; ≥ and ≤ were set here for values at or beyond the usual limits of such assays
# HLA-B*07:02 = test: IEDB peptide-MHC binding, purified MHC/direct/fluorescence; filed as Kd, often an IC50 or EC50 that approximates it; ≥ and ≤ were set here for values at or beyond the usual limits of such assays
# HLA-B*35:01 = test: as above
# HLA-A*02:01 [6] = test: as above
# HLA-B*08:01 = test: as above
# HLA-A*31:01 [7] = test: as above
# HLA-B*58:01 = test: as above
# HLA-B*40:01 = test: as above
# HLA-B*27:05 = test: as above
# HLA-A*26:01 = test: as above
# HLA-B*15:01 [8] = test: as above
# HLA-A*24:03 = test: as above
# HLA-B*15:01 [9] = test: IEDB peptide-MHC binding, purified MHC/competitive/fluorescence; filed as Kd, often an IC50 or EC50 that approximates it; ≥ and ≤ were set here for values at or beyond the usual limits of such assays; settings: source organism: Escherichia coli O157:H7 str. EDL933
# HLA-A*69:01 = test: IEDB peptide-MHC binding, purified MHC/direct/fluorescence; filed as Kd, often an IC50 or EC50 that approximates it; ≥ and ≤ were set here for values at or beyond the usual limits of such assays
# HLA-A*29:02 [10] = test: as above; settings: source organism: Mammarenavirus juninense
# HLA-B*44:02 = test: as above; settings: source organism: Giardia lamblia ATCC 50803
# HLA-B*39:01 = test: as above; settings: source organism: Giardia lamblia ATCC 50803
# HLA-A*29:02 [11] = test: IEDB peptide-MHC binding, purified MHC/competitive/fluorescence; filed as Kd, often an IC50 or EC50 that approximates it; ≥ and ≤ were set here for values at or beyond the usual limits of such assays; settings: source organism: Mycobacterium tuberculosis variant bovis BCG str. Pasteur 1173P2
# HLA-A*01:01 [12] = test: IEDB peptide-MHC binding, purified MHC/competitive/radioactivity; filed as Kd, often an IC50 or EC50 that approximates it; ≥ and ≤ were set here for values at or beyond the usual limits of such assays; settings: source organism: Dengue virus 4 Philippines/H241/1956
# [13] = source organism: Mammarenavirus lassaense
# [14] = source organism: Dengue virus 1 Brazil/97-11/1997
# [15] = source organism: Dengue virus 1 Singapore/S275/1990
# [16] = source organism: Shigella sonnei Ss046
# [17] = source organism: Escherichia coli O157:H7
# [18] = source organism: Dengue virus 2 Jamaica/1409/1983
# [19] = source organism: Yersinia pestis
# [20] = source organism: Dengue virus 4 Philippines/H241/1956
# [21] = source organism: Dengue virus 3 China/80-2/1980
# [22] = source organism: Corynebacterium glutamicum
# [23] = source organism: Haemophilus influenzae
# [24] = source organism: Mammarenavirus juninense
# [25] = source organism: Giardia lamblia ATCC 50803
# [26] = source organism: Bacillus anthracis str. A2012
sequence,measurement,setting,value
RTRDIYISR,Kd,HLA-A*33:01,22.3 nM
same,Kd,HLA-A*68:01,825 nM
same,Kd,HLA-A*11:01; [13],≥ 20000 nM
same,Kd,HLA-A*03:01 [1]; [13],98.5 nM
same,Kd,HLA-A*31:01 [2]; source organism: Lassa virus GA391,4.75 nM
KILNPYMPSV,Kd,HLA-A*02:03; [14],48.5 nM
same,Kd,HLA-A*02:01 [3]; [15],4.81 nM
same,Kd,HLA-A*02:17; [15],7.71 nM
same,Kd,HLA-A*02:06; [14],5.14 nM
MQLSRLTLR,Kd,HLA-A*03:01 [4]; [16],3500 nM
same,Kd,HLA-A*31:01 [2]; [16],6.1 nM
KLRMVTGLR,Kd,HLA-A*03:01 [1]; source organism: Influenza A virus (A/Liaoning/25/2000(H1N1)),366 nM
same,Kd,HLA-A*31:01 [2]; source organism: Influenza A virus (A/Bangkok/10/1983(H1N1)),45.1 nM
RVIRTVREK,Kd,HLA-A*01:01 [5]; [17],≥ 20000 nM
same,Kd,HLA-A*80:01; [17],≥ 20000 nM
AIDLDPVVY,Kd,HLA-A*80:01; [15],≥ 5000 nM
TMTDDIGMGV,Kd,HLA-A*02:03; [18],7.59 nM
same,Kd,HLA-A*02:01 [3]; [18],21.3 nM
same,Kd,HLA-A*68:02; [18],116 nM
same,Kd,HLA-A*02:17; [18],313 nM
same,Kd,HLA-A*02:06; [18],5.64 nM
ILNPYMPSV,Kd,HLA-A*02:03; [14],1.98 nM
same,Kd,HLA-A*02:01 [3]; [15],4.26 nM
same,Kd,HLA-A*02:17; [15],3.58 nM
same,Kd,HLA-A*02:06; [14],4.98 nM
DLRPYGLIK,Kd,HLA-A*01:01 [5]; [19],≥ 20000 nM
same,Kd,HLA-A*80:01; [19],≥ 20000 nM
AVFEIFFRK,Kd,HLA-A*11:01; source organism: Mycobacterium tuberculosis,12.6 nM
same,Kd,HLA-A*31:01 [2]; source organism: Mycobacterium tuberculosis variant bovis BCG str. Pasteur 1173P2,61.7 nM
YVVIAILTV,Kd,HLA-A*02:01 [3]; [18],254 nM
same,Kd,HLA-A*68:02; [18],26.3 nM
same,Kd,HLA-A*02:17; [18],509 nM
same,Kd,HLA-A*02:06; [18],12.4 nM
MTLWYMWQV,Kd,HLA-A*02:01 [3]; [20],13.7 nM
same,Kd,HLA-A*68:02; [20],11.3 nM
same,Kd,HLA-A*02:17; [20],27.4 nM
same,Kd,HLA-A*02:06; [20],2.67 nM
MVLAFITFL,Kd,HLA-A*02:01 [3]; [20],16.9 nM
same,Kd,HLA-A*68:02; [20],19.2 nM
same,Kd,HLA-A*02:17; [20],3.99 nM
same,Kd,HLA-A*02:06; [20],3.45 nM
ALFSGVSWIM,Kd,HLA-A*02:01 [3]; [21],6.61 nM
same,Kd,HLA-A*02:17; [21],202 nM
FAAAAARTL,Kd,HLA-B*07:02; [22],122 nM
same,Kd,HLA-A*01:01 [5]; [22],≥ 20000 nM
same,Kd,HLA-B*35:01; [22],5.17 nM
same,Kd,HLA-A*11:01; [22],≥ 20000 nM
same,Kd,HLA-A*02:01 [6]; [22],≥ 20000 nM
same,Kd,HLA-A*03:01 [1]; [22],≥ 20000 nM
same,Kd,HLA-B*08:01; [22],2340 nM
same,Kd,HLA-A*31:01 [7]; [22],≥ 20000 nM
same,Kd,HLA-B*58:01; [22],2380 nM
same,Kd,HLA-B*40:01; [22],2570 nM
same,Kd,HLA-B*27:05; [22],≥ 20000 nM
same,Kd,HLA-A*26:01; [22],≥ 20000 nM
same,Kd,HLA-B*15:01 [8]; [22],296 nM
same,Kd,HLA-A*24:03; [22],≥ 20000 nM
VLIGRRWFR,Kd,HLA-A*31:01 [2]; source organism: Escherichia coli O157:H7 str. EDL933,1.7 nM
same,Kd,HLA-B*15:01 [9],≥ 20000 nM
DTPGERNPY,Kd,HLA-A*01:01 [5]; [13],≥ 20000 nM
same,Kd,HLA-A*80:01; [13],≥ 20000 nM
YATVAGHEG,Kd,HLA-A*01:01 [5]; [23],≥ 20000 nM
same,Kd,HLA-B*35:01; [23],290 nM
same,Kd,HLA-A*11:01; [23],≥ 20000 nM
same,Kd,HLA-A*02:01 [6]; [23],666 nM
same,Kd,HLA-A*69:01; [23],≥ 20000 nM
same,Kd,HLA-A*03:01 [1]; [23],≥ 20000 nM
same,Kd,HLA-B*08:01; [23],≥ 20000 nM
same,Kd,HLA-A*31:01 [7]; [23],≥ 20000 nM
same,Kd,HLA-B*58:01; [23],≥ 20000 nM
same,Kd,HLA-B*40:01; [23],≥ 20000 nM
same,Kd,HLA-B*27:05; [23],≥ 20000 nM
same,Kd,HLA-A*26:01; [23],≥ 20000 nM
same,Kd,HLA-B*15:01 [8]; [23],10500 nM
same,Kd,HLA-A*24:03; [23],893 nM
VSDRPVMRY,Kd,HLA-A*01:01 [5]; [24],185 nM
same,Kd,HLA-A*80:01; [24],360 nM
same,Kd,HLA-A*29:02 [10],117 nM
ARADGILRF,Kd,HLA-B*07:02; [25],≥ 20000 nM
same,Kd,HLA-A*01:01 [5]; [25],≥ 20000 nM
same,Kd,HLA-B*35:01; [25],4030 nM
same,Kd,HLA-A*11:01; [25],≥ 20000 nM
same,Kd,HLA-B*44:02,≥ 20000 nM
same,Kd,HLA-A*02:01 [6]; [25],≥ 20000 nM
same,Kd,HLA-A*69:01; [25],≥ 20000 nM
same,Kd,HLA-A*03:01 [1]; [25],≥ 20000 nM
same,Kd,HLA-B*08:01; [25],≥ 20000 nM
same,Kd,HLA-A*31:01 [7]; [25],≥ 20000 nM
same,Kd,HLA-B*39:01,2560 nM
same,Kd,HLA-B*58:01; [25],≥ 20000 nM
same,Kd,HLA-B*40:01; [25],3170 nM
same,Kd,HLA-B*27:05; [25],201 nM
same,Kd,HLA-A*26:01; [25],≥ 20000 nM
same,Kd,HLA-B*15:01 [8]; [25],≥ 20000 nM
LAIDRDDLY,Kd,HLA-A*29:02 [11],5.3 nM
FIDGISLGL,Kd,HLA-A*01:01 [12],1520 nM
same,Kd,HLA-A*02:01 [3]; [20],18.9 nM
same,Kd,HLA-A*02:17; [20],56.1 nM
same,Kd,HLA-A*02:06; [20],32.4 nM
LLLSFTSFR,Kd,HLA-A*03:01 [4]; [26],22.9 nM
same,Kd,HLA-A*31:01 [2]; [26],2.6 nM
